# Test results reported in patent publication US9243044B2, “Anticoagulant polypeptide and applications thereof” (GUANGDONG MEDICAL COLLEGE, priority 2011, dated 2016).
# Entries after “also recorded” stand apart in the source; their conditions may differ.
# T1: human fXIIa (Homo sapiens, UniProt P00748)
# T1 construct: Human coagulation factors IIa (thrombin), Xa, XIa, XIIa, EGR-fXa; purchased Haematologic Technologies Inc (United States)
# T1 sequence (P00748 373-615 limits assumed): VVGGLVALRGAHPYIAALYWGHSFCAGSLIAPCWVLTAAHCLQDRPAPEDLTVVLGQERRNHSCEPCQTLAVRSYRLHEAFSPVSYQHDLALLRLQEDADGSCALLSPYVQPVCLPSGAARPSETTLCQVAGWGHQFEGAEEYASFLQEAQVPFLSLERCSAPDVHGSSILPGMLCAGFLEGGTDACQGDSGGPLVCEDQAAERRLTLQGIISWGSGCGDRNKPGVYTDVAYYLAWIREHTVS
# T1 sequence (P00748 20-372 limits assumed): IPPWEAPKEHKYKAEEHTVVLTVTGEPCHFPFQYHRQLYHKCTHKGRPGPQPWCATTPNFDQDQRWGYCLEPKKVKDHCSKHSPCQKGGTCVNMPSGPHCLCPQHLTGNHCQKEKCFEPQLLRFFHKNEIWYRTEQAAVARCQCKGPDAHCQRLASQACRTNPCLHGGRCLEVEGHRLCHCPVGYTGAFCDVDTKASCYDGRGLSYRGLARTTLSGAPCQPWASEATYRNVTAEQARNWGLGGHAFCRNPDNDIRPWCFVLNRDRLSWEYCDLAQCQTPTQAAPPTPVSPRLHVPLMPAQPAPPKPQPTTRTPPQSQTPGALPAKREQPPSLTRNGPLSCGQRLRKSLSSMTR
# B1: NAPTin-1 (protein)
# chain: NPSCGENERHDECSRKECDPKCKYDGTEEKDDEKPVVCLTRVCYGDCICRDGFLRNKNGACVKAEDCELD
# modifications: Sequence derived from Ancylostoma caninum or Synthetic
# Key:
# normal human plasma = experiment: PT assay in normal human plasma; assay type: biochemical; conditions: for PT: normal human plasma
# Experimental: The recombinant anticoagulant polypeptides were expressed in Escherichia coli and purified in our laboratory. Anticoagulant activity was determined by measuring the aPTT and PT.
# For the PT assay, 10 μl recombinant protein at various concentration was mixed with 45 μl normal human plasma and incubated for 15 mins at 37° C. 45 μl prewarmed PT reagent (MDC Hemostasis, Germany) was then added and the clotting time was measured with the absorbance at 630 nm by using an E1x808 kinetic microtiter reader (BioTek, United States). Each concentration was repeated 3 times.
# human fXIa = target: T2, human fXIa (Homo sapiens, UniProt P03951); experiment: Chromogenic assay, fXIa; assay type: biochemical
# T2 construct: Human coagulation factors IIa (thrombin), Xa, XIa, XIIa, EGR-fXa; purchased Haematologic Technologies Inc (United States)
# Excerpt: (§1) The recombinant anticoagulant polypeptides in the present invention were expressed in E. coli and purified in our laboratory, of which the activities against coagulation factors were investigated by chromogenic assays. Human coagulation factors IIa (thrombin), Xa, XIa, XIIa, EGR-fXa were products of Haematologic Technologies Inc (United States). Recombinant fVIIa was products of Novo-Nordisk (Denmark). Recombinant soluble tissue factor (sTF) was purchased from Protgen (Beijing, China). The following chromogenic substrates were used for these coagulation factor assays: S2765 for human fXa, S2288 for human fVIIa and fIIa, 52366 for human fXIa and fXIIa, respectively.
# (§2) The chromogenic assays were carried out in a total reaction volume of 100 μl in individual wells of a 96-well microtiter plate. 50 μl fIIa, fXa, fXIa, or fXIIa (final concentration: 1 nM) was incubated with 10 μl recombinant anticoagulant polypeptide at various concentrations (or PBS control group) Assays for the detection activity of fVIIa: 50 μl fVIIa+TF (1 μM) and EGR-fXa (final concentration 500 nM) was incubated for 15 mins at 25° C., respectively. After the addition of 40 μl of prewarmed chromogenic substrate to a final concentration of 400 μM, the changes of absorbance at 405 nm were monitored by using an E1x808 kinetic microtiter reader. The data were used to calculate the velocities of response.
# human fIIa (thrombin) = target: T3, human fIIa (thrombin) (Homo sapiens, UniProt P00734); experiment: Chromogenic assay, fIIa (thrombin); assay type: biochemical
# T3 construct: Human coagulation factors IIa (thrombin), Xa, XIa, XIIa, EGR-fXa; purchased Haematologic Technologies Inc (United States)
# Excerpt: as §1, §2
# human fXIIa = target: T1, human fXIIa; experiment: Chromogenic assay, fXIIa; assay type: biochemical
# Excerpt: as §1, §2
# fVIIa/TF = target: T4, fVIIa/TF (Homo sapiens, UniProt P08709); experiment: Chromogenic assay, fVIIa/TF; assay type: biochemical
# T4 construct: Recombinant fVIIa was products of Novo-Nordisk (Denmark); purchased Novo-Nordisk (Denmark) for fVIIa; Protgen (Beijing, China) for sTF; Haematologic Technologies Inc for EGR-fXa
# Excerpt: as §1, §2
# SD rats [1] = experiment: Rat clotting time after i.v. injection, aPTT; assay type: in vivo; conditions: for Clotting time aPTT: rat plasma 2 min after injection
# Experimental: (§3) 40 SPF grade male SD rats (provided by the laboratory animal center of Guangdong Medical College, 300-350 g body weight) were randomly divided into a line group, and rNAPTin-1 low-dose (100 μg·kg^−1), middle-dose (1 mg·kg^−1), high dose group (5 mg·kg^−1), 10 rats each group. 2 min after intravenous injection of various rNAPTin-1, blood was harvested from animal heart, and injected into an anticoagulant tube (3.8% sodium citrate). Animal plasma was separated by centrifugation (1500×g, 10 mins) and was used to measure aPTT and PT.
# SD rats [2] = experiment: Rat clotting time after i.v. injection, PT; assay type: in vivo; conditions: for Clotting time PT: rat plasma 2 min after injection
# Experimental: as §3
# T4 sequence (P08709 61-212 limits assumed): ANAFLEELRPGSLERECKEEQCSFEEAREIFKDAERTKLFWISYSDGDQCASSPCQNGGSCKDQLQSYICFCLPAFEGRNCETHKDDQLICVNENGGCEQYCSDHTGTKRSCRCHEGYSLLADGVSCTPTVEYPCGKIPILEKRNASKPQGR
# T4 sequence (P08709 213-466 limits assumed): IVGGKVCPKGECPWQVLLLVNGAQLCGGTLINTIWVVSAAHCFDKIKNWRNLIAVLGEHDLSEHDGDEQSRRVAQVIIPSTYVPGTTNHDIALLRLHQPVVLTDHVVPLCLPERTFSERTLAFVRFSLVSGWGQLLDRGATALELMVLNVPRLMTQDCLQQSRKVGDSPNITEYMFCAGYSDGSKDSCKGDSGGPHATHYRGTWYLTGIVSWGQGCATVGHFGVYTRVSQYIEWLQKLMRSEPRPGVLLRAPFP
# T4 sequence (P13726 33-251 partner limits assumed): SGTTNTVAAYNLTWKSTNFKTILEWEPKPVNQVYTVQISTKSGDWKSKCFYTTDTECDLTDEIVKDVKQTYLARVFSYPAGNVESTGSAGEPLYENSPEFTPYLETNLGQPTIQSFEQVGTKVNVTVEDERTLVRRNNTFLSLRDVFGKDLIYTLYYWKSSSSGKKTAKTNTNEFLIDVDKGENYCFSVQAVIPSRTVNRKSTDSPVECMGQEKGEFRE
# T2 sequence (P03951 19-387 limits assumed): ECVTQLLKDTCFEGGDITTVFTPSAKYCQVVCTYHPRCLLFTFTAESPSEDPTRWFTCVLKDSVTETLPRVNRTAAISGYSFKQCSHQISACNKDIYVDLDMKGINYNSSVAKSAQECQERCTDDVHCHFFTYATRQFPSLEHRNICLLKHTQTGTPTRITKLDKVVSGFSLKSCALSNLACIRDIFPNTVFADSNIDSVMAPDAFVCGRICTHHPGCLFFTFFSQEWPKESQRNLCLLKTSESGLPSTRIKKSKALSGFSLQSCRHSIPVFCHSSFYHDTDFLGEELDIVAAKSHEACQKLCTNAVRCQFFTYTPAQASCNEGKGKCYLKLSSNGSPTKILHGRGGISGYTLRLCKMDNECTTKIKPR
# T2 sequence (P03951 388-625 limits assumed): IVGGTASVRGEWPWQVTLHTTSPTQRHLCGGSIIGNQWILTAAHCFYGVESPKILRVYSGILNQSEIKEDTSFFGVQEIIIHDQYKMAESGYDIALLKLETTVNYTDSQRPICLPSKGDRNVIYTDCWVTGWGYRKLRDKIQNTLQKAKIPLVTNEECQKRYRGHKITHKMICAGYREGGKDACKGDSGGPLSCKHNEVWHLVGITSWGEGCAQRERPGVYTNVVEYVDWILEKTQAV
molecule,measurement,setting,value
B1,prolongation of PT (in words),normal human plasma; 100 nM and 500 nM,couldn't prolong PT
same,PT,normal human plasma; 100 nM,12.4 ± 0.9 s
same,PT,normal human plasma; 500 nM,12.1 ± 0.4 s
same,inhibition of the activity of fXIa,human fXIa; 100 nM,more than 90%
same,inhibition of the activity of fXIa (in words),human fXIa; 200 nM,almost completely inhibited
same,effect on fIIa activity (in words),human fIIa (thrombin); 100 nM,without affecting
same,effect on fIIa activity (in words),human fIIa (thrombin); 200 nM,without affecting
same,effect on fXIIa activity (in words),human fXIIa; 100 nM,without affecting
same,effect on fXIIa activity (in words),human fXIIa; 200 nM,without affecting
same,effect on fVIIa/TF activity (in words),fVIIa/TF; 100 nM,without affecting; also recorded: no significant inhibitory activity
same,effect on fVIIa/TF activity (in words),fVIIa/TF; 200 nM,without affecting
same,Clotting time aPTT,SD rats [1]; 0.1 mg/kg i.v.,23.5 ± 2.1
same,Clotting time aPTT,SD rats [1]; 1.0 mg/kg i.v.,56.3 ± 5.1
same,Clotting time aPTT,SD rats [1]; 5.0 mg/kg i.v.,136.7 ± 35.5
same,effect on rat aPTT (in words),SD rats [1]; 0.1-5 mg/kg i.v.,prolonged significantly aPTT
same,Clotting time PT,SD rats [2]; 0.1 mg/kg i.v.,11.8 ± 0.5
same,Clotting time PT,SD rats [2]; 1.0 mg/kg i.v.,12.0 ± 0.3
same,Clotting time PT,SD rats [2]; 5.0 mg/kg i.v.,11.5 ± 0.8
same,effect on rat PT (in words),SD rats [2]; 0.1-5 mg/kg i.v.,not prolonged PT
